Data: patent publication US7172865B2, “Rapid and sensitive assay for the detection and quantification of coregulators of nucleic acid binding factors” (Saint Louis University, priority 2001, dated 2007)
“Also recorded” adds a separate entry of the source.

Columns and labels:
[1] = system: consensus CAP site split between CAP1/CAP4 and CAP2/CAP3 duplexes; assay: CAP detection by fluorescence quenching, fluorescein/dabcyl-labeled half-site duplexes; format: binding, E. coli
Source text: A 38 bp DNA sequence corresponding to a consensus CAP site (Ebright, R. H., Ebright, Y. W. & Gunasakera, A. Nucleic Acids Res. 17, 10295–10305, 1989) was used as a basis for designing oligonucleotides necessary for preparing the CAP assay reagents according to the scheme illustrated in FIG. 1A. FIG. 3 illustrates the details of the design used. The following four oligonucleotides were synthesized using standard phosphoramidate automated oligonucleotide synthesis (F=dT-fluorescein; D=dT-dabcyl):
The fluorescence donor (fluorescein) and the fluorescence acceptor (dabcyl) were introduced into DNA fragments using commercially available dT-fluorescein and dT-dabcyl (Glen Research, Sterling, Va.) , wherein dT stands for deoxythymidine. […] The fractions containing the oligonucleotides were dried in a vacuum centrifuge concentrator and subsequently dissolved in 50 μl of water. […] The CAP1 oligonucleotide (SEQ ID NO:1) was hybridized with CAP4 oligonucleotide (SEQ ID NO:4) to generate the CAP1/CAP4 duplex and CAP2 oligonucleotide (SEQ ID NO:2) was hybridized with CAP3 oligonucleotide (SEQ ID NO:3) to generate the CAP2/CAP3 duplex. […] The excitation wavelength was at 490 nm and the emission was recorded from 500 to 650 nm.
FIG. 4B illustrates changes in fluorescence observed upon the addition of CAP protein. The spectrum of 50 nM of the CAP1/CAP4 duplex and 50 nM of the CAP2/CAP3 duplex was recorded (curve 1). CAP protein was added at 75 nM and after 15 minutes of incubation the spectrum was recorded (curve 2). A major quenching of fluorescence of approximately 50% of the control signal intensity was observed, which is consistent with the prediction that in the presence of CAP protein the association between the CAP1/CAP4 and CAP2/CAP3 duplexes is facilitated and that the fluorescein (fluorescent donor) present in the CAP2/CAP3 duplex is brought into close proximity to the dabcyl (fluorescent acceptor) present in the CAP1/CAP4 duplex, which results in the quenching of fluorescence emission due to FRET between the fluorescein and dabcyl.
FIG. 6 illustrates the change in fluorescence observed upon addition of increasing amounts of CAP protein in the assay. The experiments were performed under the same conditions as those for the experiment described above and in FIG. 4. Fluorescence quenching increased proportionally with the increase of CAP concentration until a saturation of the signal occurred at ˜150 nM protein.
The kinetics of CAP induced fluorescence quenching was also studied to determine the time required for completion of the assay (FIG. 7). […] At the time indicated by the arrow in FIG. 7, 100 nM CAP protein was added and monitoring of the fluorescence signal was resumed.

[2] = system: CAP5/CAP3 and CAP1/CAP4 duplexes; assay: two-color simultaneous detection, coumarin-labeled CAP constructs; format: binding; settings: excitation 433 nm, one protein only
Source text: The compatibility of the assays described in the instant invention with a variety of fluorescence probes emitting at different wavelengths allows for the designing of variations in which two or more proteins may be detected simultaneously. Nucleic acid constructs specific for each of the proteins to be detected may be labeled with probes that emit light at different wavelengths. In this example, the reaction mixture contained nucleic acid constructs labeled with 7-diethylaminocoumarin-3-carboxylic acid for detecting CAP protein (described in EXAMPLE 2) and nucleic acid constructs labeled with fluorescein for detecting TrpR protein (described in EXAMPLE 6). Specifically, 100 nM CAP5/CAP3, 120 nM CAP1/CAP4, 100 nM TRP2/TRP3, and 120 nM TRP1/TRP4 duplexes were present in the reaction mixture.
The fluorescence spectra with the excitation at 433 nm (excitation of 7-diethylaminocoumarin-3-carbo acid, FIG. 17A) and with the excitation at 490 nm (excitation of fluorescein, FIG. 17B) were recorded in the absence of the proteins (curves 1), in the presence of CAP only (curves 2), in the presence of TrpR only (curves 3), and in the presence of both CAP and TrpR (curves 4). In the presence of only CAP there was no change in the fluorescein signal (FIG. 17B, curve 2) whereas about 60% quenching of the 7-diethylaminocoumarin-3-carbox acid signal was observed (FIG. 17A, curve 2). […]

CAP protein = CAP protein (Escherichia coli, UniProt P0ACJ8); settings: in the absence of cAMP
DNA = settings: sequence specific binding; cited from earlier work

B1: CAP: bacterial transcription activator from E. coli which binds DNA in a sequence specific, cAMP-dependent manner (protein, UniProt P0ACJ8 2-210, looked up)
DNA-binding transcriptional …: VLGKPQTDPTLEWFLSHCHIHKYPSKSTLIHQGEKAETLYYIVKGSVAVLIKDEEGKEMILSYLNQGDFIGELGLFEEGQERSAWVRAKTACEVAEISYKKFRQLIQVNPDILMRLSAQMARRLQVTSEKVGNLAFLDVTGRIAQTLLNLAKQPDAMTHPDGMQIKITRQEIGQIVGCSRETVGRILKMLEDQNLISAHGKTIVVYGTR
In the case of B1, the “protein concentration at saturation of the quenching signal” value ([1]; 50 nM duplexes) is reported as ~150 nM, the quenching of fluorescence ([1]; 75 nM CAP, 15 minutes, 50 nM of each duplex, 200 μM cAMP) is reported as “approximately 50%” and the “time for the reaction to go to completion” value ([1]; 100 nM CAP, emission 520 nm) is reported as “approximately 15 minutes”. For the same molecule, the “change in fluorescence upon addition of CAP” value ([1]; in the absence of cAMP) was “No change in fluorescence; also recorded: does not produce a change in fluorescence signal intensity”, the “quenching of the 7-diethylaminocoumarin-3-carboxylic acid signal” value [2] was “about 60%” and the “CAP binding to the CAP1/CAP4 and CAP2/CAP3 DNA duplex” value (CAP protein) was “No detectable binding”. For the same molecule, the Kd (DNA) was ~0.1 nM.
